Experimental data as given in the supplement of paper PMC10065799, “High-throughput profiling of sequence recognition by tyrosine kinases and SH2 domains using bacterial peptide display” (eLife, 2023).

Experiments:
Grb2 SH2 = Grb2 SH2 (UniProt P62993); experiment: SH2 binding enrichment of the phosphorylated peptide, bacterial display (enrichment ratio); higher = better substrate or ligand; peptides without Tyr show the background
c-Src SH2 = experiment: as above
SHP2-C SH2 = experiment: as above
Hck = Hck (UniProt P08631); experiment: phosphorylation enrichment, bacterial display (enrichment ratio); higher = better substrate or ligand; peptides without Tyr show the background
FGFR1 = FGFR1 (UniProt P11362); experiment: as above
EPHB1 = EPHB1 (UniProt P54762); experiment: as above
FGFR3 = FGFR3 (UniProt P22607); experiment: as above
c-Src = experiment: as above
Fes = Fes (UniProt P07332); experiment: as above
MERTK = MERTK (UniProt Q12866); experiment: as above
EPHB2 = EPHB2 (UniProt P29323); experiment: as above
Fer (mouse) = experiment: as above
AncSZ = experiment: as above
c-Abl (mouse) = experiment: as above
Jak2 = Jak2 (UniProt O60674); experiment: as above
Fyn = Fyn (UniProt P06241); experiment: as above
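Throughout, for SH2 binding enrichment of the phosphorylated peptide, bacterial display: peptide library displayed on the E. coli surface as eCPX fusions, selected cells deep-sequenced, score is each peptide's frequency after selection divided by its frequency in the input.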
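Throughout, for phosphorylation enrichment, bacterial display: 11-residue human phosphosite peptides and single-mutation variants displayed on the E. coli surface, counted by deep sequencing, each peptide's frequency after selection divided by its frequency in the unselected input library; frequency after pTyr selection over input frequency; kinase dosed for 20-30% of maximal phosphorylation in three min.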

Sequence of FGFR1 (P11362 whole entry, looked up): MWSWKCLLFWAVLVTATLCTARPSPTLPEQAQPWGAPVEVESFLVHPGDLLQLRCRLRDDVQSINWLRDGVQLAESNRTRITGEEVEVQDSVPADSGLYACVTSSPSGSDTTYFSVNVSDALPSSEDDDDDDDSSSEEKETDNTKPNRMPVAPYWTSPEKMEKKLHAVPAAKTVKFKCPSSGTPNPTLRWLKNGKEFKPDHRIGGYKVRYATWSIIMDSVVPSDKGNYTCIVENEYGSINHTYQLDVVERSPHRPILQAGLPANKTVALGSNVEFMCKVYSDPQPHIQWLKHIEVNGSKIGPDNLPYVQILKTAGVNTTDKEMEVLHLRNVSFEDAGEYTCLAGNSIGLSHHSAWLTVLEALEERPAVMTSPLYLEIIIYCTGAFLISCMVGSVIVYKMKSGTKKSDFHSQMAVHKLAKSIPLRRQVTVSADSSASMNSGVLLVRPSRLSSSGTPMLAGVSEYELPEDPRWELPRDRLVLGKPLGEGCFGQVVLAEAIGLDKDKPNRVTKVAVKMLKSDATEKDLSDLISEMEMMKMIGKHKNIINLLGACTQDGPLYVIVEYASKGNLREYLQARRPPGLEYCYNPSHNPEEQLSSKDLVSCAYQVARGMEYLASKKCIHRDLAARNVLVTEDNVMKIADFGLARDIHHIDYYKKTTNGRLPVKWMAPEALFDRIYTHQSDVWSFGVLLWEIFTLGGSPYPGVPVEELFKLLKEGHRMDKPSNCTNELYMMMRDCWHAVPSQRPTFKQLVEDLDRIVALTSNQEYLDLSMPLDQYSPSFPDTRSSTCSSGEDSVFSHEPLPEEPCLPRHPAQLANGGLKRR
Sequence of Hck (P08631 whole entry, looked up): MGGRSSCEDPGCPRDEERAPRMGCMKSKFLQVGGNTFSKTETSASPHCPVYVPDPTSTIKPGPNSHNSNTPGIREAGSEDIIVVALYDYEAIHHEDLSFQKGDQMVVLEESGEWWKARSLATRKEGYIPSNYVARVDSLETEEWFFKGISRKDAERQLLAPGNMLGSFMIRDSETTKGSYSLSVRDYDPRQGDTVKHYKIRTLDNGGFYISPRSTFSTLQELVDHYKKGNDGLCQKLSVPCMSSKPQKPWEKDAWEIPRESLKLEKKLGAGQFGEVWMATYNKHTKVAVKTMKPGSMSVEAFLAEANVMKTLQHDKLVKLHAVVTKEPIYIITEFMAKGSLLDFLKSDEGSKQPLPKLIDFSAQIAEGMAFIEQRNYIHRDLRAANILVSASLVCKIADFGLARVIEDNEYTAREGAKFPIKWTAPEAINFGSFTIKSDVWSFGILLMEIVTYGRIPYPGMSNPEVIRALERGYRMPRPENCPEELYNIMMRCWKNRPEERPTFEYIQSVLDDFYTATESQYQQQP
Sequence of EPHB2 (P29323 whole entry, looked up): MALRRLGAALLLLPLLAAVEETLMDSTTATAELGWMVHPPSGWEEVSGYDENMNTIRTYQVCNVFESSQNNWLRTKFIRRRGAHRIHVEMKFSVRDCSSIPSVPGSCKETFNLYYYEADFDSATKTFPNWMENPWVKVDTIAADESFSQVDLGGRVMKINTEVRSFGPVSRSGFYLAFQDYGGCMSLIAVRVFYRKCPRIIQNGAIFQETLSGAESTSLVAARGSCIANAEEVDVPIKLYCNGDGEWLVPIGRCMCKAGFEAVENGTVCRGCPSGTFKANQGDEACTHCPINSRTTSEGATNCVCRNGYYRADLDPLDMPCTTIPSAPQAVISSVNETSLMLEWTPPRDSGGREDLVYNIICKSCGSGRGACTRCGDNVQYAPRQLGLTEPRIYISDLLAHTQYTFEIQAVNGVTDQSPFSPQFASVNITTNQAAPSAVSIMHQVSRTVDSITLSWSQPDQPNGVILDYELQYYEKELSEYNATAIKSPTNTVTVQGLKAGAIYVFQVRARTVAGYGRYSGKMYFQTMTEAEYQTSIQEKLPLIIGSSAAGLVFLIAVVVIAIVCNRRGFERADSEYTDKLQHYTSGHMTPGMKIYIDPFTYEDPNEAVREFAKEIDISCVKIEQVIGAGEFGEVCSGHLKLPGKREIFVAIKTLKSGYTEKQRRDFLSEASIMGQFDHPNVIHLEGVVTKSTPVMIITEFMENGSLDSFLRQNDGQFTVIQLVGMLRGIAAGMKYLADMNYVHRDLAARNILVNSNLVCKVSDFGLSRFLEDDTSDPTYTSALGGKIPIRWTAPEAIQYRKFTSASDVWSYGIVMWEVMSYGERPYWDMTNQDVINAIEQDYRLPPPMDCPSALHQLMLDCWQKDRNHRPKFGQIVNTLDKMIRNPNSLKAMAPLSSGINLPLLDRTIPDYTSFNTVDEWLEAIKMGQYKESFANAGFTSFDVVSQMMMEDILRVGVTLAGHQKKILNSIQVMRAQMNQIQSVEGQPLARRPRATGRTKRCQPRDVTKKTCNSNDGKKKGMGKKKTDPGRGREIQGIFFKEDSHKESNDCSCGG
Sequence of Fyn (P06241 whole entry, looked up, the tested form may be a part): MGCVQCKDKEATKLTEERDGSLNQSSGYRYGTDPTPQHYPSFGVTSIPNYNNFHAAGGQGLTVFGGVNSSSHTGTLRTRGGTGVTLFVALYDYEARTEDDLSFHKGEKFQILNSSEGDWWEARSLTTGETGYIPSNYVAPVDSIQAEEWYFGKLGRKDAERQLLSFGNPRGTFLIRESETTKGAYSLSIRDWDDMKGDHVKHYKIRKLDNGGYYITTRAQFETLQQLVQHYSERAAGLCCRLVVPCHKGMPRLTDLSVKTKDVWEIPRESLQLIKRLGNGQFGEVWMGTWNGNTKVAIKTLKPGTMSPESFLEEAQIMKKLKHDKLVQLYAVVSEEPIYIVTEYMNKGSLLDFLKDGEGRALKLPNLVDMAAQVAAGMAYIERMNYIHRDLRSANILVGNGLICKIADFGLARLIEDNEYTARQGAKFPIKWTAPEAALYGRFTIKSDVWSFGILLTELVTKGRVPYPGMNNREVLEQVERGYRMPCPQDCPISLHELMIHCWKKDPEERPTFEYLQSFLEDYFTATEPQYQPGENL
Sequence of EPHB1 (P54762 whole entry, looked up): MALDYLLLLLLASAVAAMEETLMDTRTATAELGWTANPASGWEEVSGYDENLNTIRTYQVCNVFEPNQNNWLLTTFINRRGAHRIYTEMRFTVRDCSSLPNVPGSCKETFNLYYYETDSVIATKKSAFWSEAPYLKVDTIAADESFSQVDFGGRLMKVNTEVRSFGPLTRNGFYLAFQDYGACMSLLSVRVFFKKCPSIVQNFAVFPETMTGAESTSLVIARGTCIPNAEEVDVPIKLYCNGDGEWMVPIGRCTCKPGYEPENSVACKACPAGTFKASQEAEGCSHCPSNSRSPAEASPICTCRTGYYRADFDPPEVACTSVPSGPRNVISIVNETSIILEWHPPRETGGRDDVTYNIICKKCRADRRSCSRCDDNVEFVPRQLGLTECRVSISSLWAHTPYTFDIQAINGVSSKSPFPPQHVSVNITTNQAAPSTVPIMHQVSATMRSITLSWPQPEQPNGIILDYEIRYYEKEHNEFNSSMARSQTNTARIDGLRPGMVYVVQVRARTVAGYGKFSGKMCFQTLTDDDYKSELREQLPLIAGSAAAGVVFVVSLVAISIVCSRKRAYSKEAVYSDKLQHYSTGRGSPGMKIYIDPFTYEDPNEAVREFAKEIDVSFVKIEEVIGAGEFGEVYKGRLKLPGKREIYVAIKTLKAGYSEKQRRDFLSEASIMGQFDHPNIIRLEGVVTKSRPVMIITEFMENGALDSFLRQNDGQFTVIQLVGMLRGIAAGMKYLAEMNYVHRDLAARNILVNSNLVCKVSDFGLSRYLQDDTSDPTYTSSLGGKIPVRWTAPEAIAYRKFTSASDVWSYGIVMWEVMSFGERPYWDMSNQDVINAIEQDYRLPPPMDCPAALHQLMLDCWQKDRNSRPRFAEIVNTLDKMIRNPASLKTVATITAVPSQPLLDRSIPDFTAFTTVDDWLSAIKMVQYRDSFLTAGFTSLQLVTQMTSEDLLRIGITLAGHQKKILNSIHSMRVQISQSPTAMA
Sequence of Fes (P07332 whole entry, looked up): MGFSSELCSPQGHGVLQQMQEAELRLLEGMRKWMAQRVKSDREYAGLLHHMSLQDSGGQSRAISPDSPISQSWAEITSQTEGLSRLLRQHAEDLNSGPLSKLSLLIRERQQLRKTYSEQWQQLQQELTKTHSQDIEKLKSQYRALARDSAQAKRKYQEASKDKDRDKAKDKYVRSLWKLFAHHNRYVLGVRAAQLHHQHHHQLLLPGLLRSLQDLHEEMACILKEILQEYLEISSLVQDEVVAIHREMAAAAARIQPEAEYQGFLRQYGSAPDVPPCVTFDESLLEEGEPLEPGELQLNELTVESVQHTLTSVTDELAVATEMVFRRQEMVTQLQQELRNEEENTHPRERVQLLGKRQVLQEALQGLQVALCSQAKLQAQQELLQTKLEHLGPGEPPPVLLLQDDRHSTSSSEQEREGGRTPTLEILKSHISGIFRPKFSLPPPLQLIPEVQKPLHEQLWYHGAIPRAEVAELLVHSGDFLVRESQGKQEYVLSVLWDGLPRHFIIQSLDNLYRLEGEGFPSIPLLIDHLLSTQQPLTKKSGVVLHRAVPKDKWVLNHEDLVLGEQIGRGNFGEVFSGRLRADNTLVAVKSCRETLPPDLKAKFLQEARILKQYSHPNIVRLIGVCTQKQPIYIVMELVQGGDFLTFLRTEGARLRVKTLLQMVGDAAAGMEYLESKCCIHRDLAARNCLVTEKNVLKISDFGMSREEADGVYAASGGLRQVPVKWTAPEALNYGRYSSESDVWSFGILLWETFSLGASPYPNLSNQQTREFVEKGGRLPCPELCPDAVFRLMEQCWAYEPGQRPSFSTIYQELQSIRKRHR

SH2 binding enrichment (Grb2 SH2)	SH2 binding enrichment (c-Src SH2)	SH2 binding enrichment (SHP2-C SH2)	Sequence	phosphorylation enrichment (Hck)	phosphorylation enrichment (FGFR1)	phosphorylation enrichment (EPHB1)	phosphorylation enrichment (FGFR3)	phosphorylation enrichment (c-Src)	phosphorylation enrichment (Fes)	phosphorylation enrichment (MERTK)	phosphorylation enrichment (EPHB2)	phosphorylation enrichment (Fer (mouse))	phosphorylation enrichment (AncSZ)	phosphorylation enrichment (c-Abl (mouse))	phosphorylation enrichment (Jak2)	phosphorylation enrichment (Fyn)
0.74	0.525	0.854	KERNQYGGVMV [MMP21_Y347_E349G]	0.474	0.418	0.361	0.475	0.507	0.594	0.394	0.394	0.474	0.534	0.44	0.425	0.556
1.95	2.06	3.37	RVKTPYSLKRW [BMPR2_Y979]	0.745	0.666	0.608	0.931	0.616	1.17	0.572	0.516	0.756	1.19	0.944	1.24	0.582
0.856	0.676	0.679	SILTVYSKDNY [PANK2_Y400_A398T]	0.449	0.452	0.535	0.594	0.538	0.91	0.383	0.407	0.388	0.678	0.639	0.715	0.442
0.765	0.482	0.657	ATVRPYRPYII [LRP5_Y1528_A1525V]	0.43	0.53	0.499	0.591	0.586	0.715	0.484	0.552	0.462	0.777	0.677	0.564	0.518
0.759	0.574	0.557	RPYRPYIIRGM [LRP5_Y1531]	1.04	0.748	0.531	0.845	0.917	1.4	0.852	0.842	0.536	0.949	0.587	0.826	0.987
0.869	0.452	0.765	RAEIVYKSPVV [MAPT_Y711_G706R]	0.674	0.783	0.663	0.857	0.723	1.46	0.415	0.507	0.363	0.995	16.4	0.779	0.482
0.743	0.837	0.836	KMKGDYYCYLA [YWHAG_Y130_R132C]	1.58	11	4.58	9.02	1.78	1.24	6.74	4.35	0.895	2.32	1.57	3.93	1.38
1.21	1.71	1.51	MSSLPYMKMIF [SLC4A11_Y853]	0.692	0.753	0.474	0.706	0.813	1.03	0.566	0.541	1.05	0.946	0.732	1.65	0.421
0.8	0.413	0.79	SKEPFYVRCIK [MYO1D_Y586_YF]	0.434	0.42	0.951	0.634	0.354	1.18	0.347	0.56	0.449	0.939	0.727	0.921	0.339
1.17	2.13	0.725	SNKLYYQLEQE [PDPR_Y110]	0.922	5.94	0.903	4.95	2.36	1.19	3.9	0.761	0.601	1.37	1.11	1.27	1.52
0.992	0.512	0.618	FEEDSYVERSQ [RET_Y905_K907E_YF]	0.457	0.508	0.67	0.731	0.526	1.26	0.415	0.621	0.575	1.18	0.866	1.08	0.504
0.948	0.588	2.21	TNRSVYFKPSL [NUP153_Y382]	0.551	0.448	0.453	0.447	0.511	0.595	0.455	0.369	0.433	0.667	0.556	0.66	0.421
1.02	0.569	0.905	GDYYRYLAEVA [YWHAG_Y133]	1.31	11.5	3.59	9.01	1.93	1.01	2.63	3.79	0.476	2.37	1.09	5.81	1.39
0.62	0.474	0.981	HNLDFYKMTTN [FGFR3_Y648_K650M_YF]	1.67	1.45	0.954	1.88	0.364	1.74	0.783	1.1	0.728	2.03	0.954	1.25	1.66
0.91	0.691	0.634	VPVNGYQPVPA [ROR2_Y824]	0.422	0.55	0.554	0.517	0.413	0.748	0.382	0.391	0.52	0.859	0.439	0.416	0.382
0.827	0.532	0.315	PESCLYKESWI [IQGAP2_Y630_L635I]	0.872	1.25	0.931	1.17	0.825	1.97	0.6	1.2	1.26	1.18	1.48	1.54	0.493
1.6	2.41	1.82	GHMYAYDWISI [BEST1_Y227_L224M]	2.87	8.74	3.06	6.08	1.82	4.88	7.82	2.54	14.7	2.18	0.739	0.798	1.89

More lines, now with the values behind:

Sequence	SH2 binding enrichment (Grb2 SH2)	SH2 binding enrichment (c-Src SH2)	SH2 binding enrichment (SHP2-C SH2)	phosphorylation enrichment (Hck)	phosphorylation enrichment (FGFR1)	phosphorylation enrichment (EPHB1)	phosphorylation enrichment (FGFR3)	phosphorylation enrichment (c-Src)	phosphorylation enrichment (Fes)	phosphorylation enrichment (MERTK)	phosphorylation enrichment (EPHB2)	phosphorylation enrichment (Fer (mouse))	phosphorylation enrichment (AncSZ)	phosphorylation enrichment (c-Abl (mouse))	phosphorylation enrichment (Jak2)	phosphorylation enrichment (Fyn)
EVVGRYSLHNA [MLH1_Y183_V185L]	0.802	0.488	0.767	0.411	0.502	0.421	0.424	0.364	0.671	0.405	0.368	0.33	0.478	0.371	0.445	0.382
YEEDSYSHVMA [FDPS_Y388_I391V]	0.772	2.64	0.69	0.606	1.22	0.59	1.27	0.587	1.17	0.464	0.65	1.64	1.87	0.696	0.944	0.775
EQFELHCEMGS [CBL_Y371_Y371H_YF]	0.707	0.606	0.685	0.58	0.496	0.71	0.802	0.528	1.49	0.526	0.623	0.577	1.17	0.995	1.25	0.523
LMIEEYLTKEP [BAG3_Y457_L462P]	0.743	0.552	0.953	1.5	1.2	1.15	1.88	1.49	2.51	1.12	0.975	0.745	2.05	2.45	2.78	0.6
SSAAGYACLAY [MVD_Y131]	0.721	2.42	3.04	0.575	0.547	0.553	0.736	0.593	1.07	0.498	0.615	0.574	0.9	0.897	1.02	0.531
AKLVQYYMEHH [PTPN11_Y80_E76K]	0.936	0.718	1.75	0.637	0.633	2.46	0.549	0.615	0.839	0.983	1.21	0.447	0.774	0.709	0.799	0.469
KPGVNYYFRVS	0.755	0.624	0.977	0.423	0.623	0.534	0.7	0.385	1.37	0.392	0.739	0.483	1.15	0.732	1.16	0.368
PLDAEYFTLQI [TP53_Y327_G325A]	0.779	0.43	0.738	1.57	8.68	0.876	6.59	4.2	1.63	0.603	0.826	0.883	2.57	1.29	3.1	2.47
DENWFYTRAAS [RPS19_Y54]	0.821	0.661	0.816	0.382	0.402	0.547	0.673	0.418	1.11	0.401	0.517	0.45	1.13	1.34	1.11	0.454
RFVFFYSFLLK [PTEN_Y178_YF]	1.45	0.552	1.43	0.509	0.731	0.748	0.9	1.05	1.65	0.539	0.502	0.612	1.44	1.45	1.64	0.623
NNHGNYIVLLG [ETFDH_Y172_R175L]	0.983	0.587	1.14	0.433	2.81	7.55	1.71	0.522	0.902	1.66	3.86	0.363	0.979	0.644	0.833	0.458
GSPPPYRRRKR [MBD1_Y403]	0.597	0.458	0.41	0.537	0.464	0.451	0.601	0.638	0.605	0.593	0.625	0.608	0.665	0.55	0.519	0.535
HPFHVYPQPGM [BAG3_Y114]	1.05	0.883	0.79	0.684	0.749	1.02	0.998	0.465	0.852	0.585	1.01	0.499	0.873	0.938	0.545	0.804
QLAPQYTYTQG [FLNA_Y1761_A1764T]	0.766	1.34	1.03	0.533	0.411	0.436	0.768	0.526	0.766	1.17	0.413	0.517	0.828	0.36	0.611	0.422
PLGKDYRKVEG [MAP1A_Y1909_A1912V]	0.556	0.385	0.706	0.513	0.518	0.561	0.685	1.53	0.883	0.741	0.768	0.456	1.27	1.66	1.52	0.74
ASNFNYFYHRE [KCNA1_Y413_V408A]	0.695	0.697	1.02	0.428	1.1	0.582	0.956	0.497	0.964	0.398	0.65	0.455	0.95	0.476	0.732	0.504
